First the molecules themselves.
T1: EsCas13d, nuclease-dead (Eubacterium siraeum, UniProt B0MS50, R295A;H300A;R849A;H854A)
T1 sequence: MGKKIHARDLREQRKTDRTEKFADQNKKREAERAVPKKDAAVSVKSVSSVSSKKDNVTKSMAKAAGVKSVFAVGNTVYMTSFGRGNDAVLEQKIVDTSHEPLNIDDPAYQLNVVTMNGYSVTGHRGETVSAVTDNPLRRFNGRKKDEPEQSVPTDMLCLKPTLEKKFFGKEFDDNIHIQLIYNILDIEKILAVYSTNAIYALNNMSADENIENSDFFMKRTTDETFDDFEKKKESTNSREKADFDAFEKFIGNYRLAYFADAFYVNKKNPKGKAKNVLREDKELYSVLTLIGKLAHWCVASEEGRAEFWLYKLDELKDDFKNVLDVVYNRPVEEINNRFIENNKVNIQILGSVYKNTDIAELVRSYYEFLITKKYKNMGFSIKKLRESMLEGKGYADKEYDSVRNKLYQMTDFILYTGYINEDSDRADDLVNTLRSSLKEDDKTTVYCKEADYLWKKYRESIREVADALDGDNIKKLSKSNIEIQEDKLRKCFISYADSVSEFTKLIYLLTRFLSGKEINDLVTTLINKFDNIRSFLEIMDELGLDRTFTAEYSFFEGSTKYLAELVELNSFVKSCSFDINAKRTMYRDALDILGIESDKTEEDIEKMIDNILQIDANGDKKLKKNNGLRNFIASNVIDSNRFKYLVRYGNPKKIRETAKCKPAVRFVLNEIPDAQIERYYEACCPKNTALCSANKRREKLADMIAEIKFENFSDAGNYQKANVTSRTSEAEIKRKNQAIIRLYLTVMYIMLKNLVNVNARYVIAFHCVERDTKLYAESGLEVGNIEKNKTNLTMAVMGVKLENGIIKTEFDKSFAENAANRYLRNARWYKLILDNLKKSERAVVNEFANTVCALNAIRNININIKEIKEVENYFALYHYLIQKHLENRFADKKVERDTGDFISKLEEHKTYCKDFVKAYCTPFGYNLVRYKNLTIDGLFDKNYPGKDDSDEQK

B1: target 1 insU 3' of 12,insG 3' of 1 (mixed)
RNA 1: CACCCGUGCAAAAAUGCAGGGGUCUAAAACUGAGCGGAUAACCUCUCUAUGG
RNA 2: GGGAAUGGAUCCACAUCUACGAAUUCGUACCAUAGAGAGGUUUAUCCGCUCAGCCGAGAUCGGAAGAGCACACGU
B2: target 1 G5U,C21A (mixed)
RNA 1: CACCCGUGCAAAAAUGCAGGGGUCUAAAACUGAGCGGAUAACCUCUCUAUGG
RNA 2: GGGAAUGGAUCCACAUCUACGAAUUCGUACAAUAGAGAGGUUAUCCUCUCACCGAGAUCGGAAGAGCACACGU
B3: target 2 MT 5'PFS AUA 3'PFS AUA (mixed)
RNA 1: CACCCGUGCAAAAUUGCAGGGGUCUAAAACCUUCUCCAAAUUGUUUCAUCCU
RNA 2: GGGAAUGGAUCCACAUCUACGAAUUCAUAAGGAUGAAACAAUUUGGAGAAGAUAAGAUCGGAAGAGCACACGU
B4: target 2 MT 5'PFS ACC 3'PFS CAA (mixed)
RNA 1: CACCCGUGCAAAAUUGCAGGGGUCUAAAACCUUCUCCAAAUUGUUUCAUCCU
RNA 2: GGGAAUGGAUCCACAUCUACGAAUUCACCAGGAUGAAACAAUUUGGAGAAGCAAAGAUCGGAAGAGCACACGU
B5: target 2 MT 5'PFS UGG 3'PFS CAG (mixed)
RNA 1: CACCCGUGCAAAAUUGCAGGGGUCUAAAACCUUCUCCAAAUUGUUUCAUCCU
RNA 2: GGGAAUGGAUCCACAUCUACGAAUUCUGGAGGAUGAAACAAUUUGGAGAAGCAGAGAUCGGAAGAGCACACGU
B6: target 2 MT 5'PFS GGU 3'PFS ACU (mixed)
RNA 1: CACCCGUGCAAAAUUGCAGGGGUCUAAAACCUUCUCCAAAUUGUUUCAUCCU
RNA 2: GGGAAUGGAUCCACAUCUACGAAUUCGGUAGGAUGAAACAAUUUGGAGAAGACUAGAUCGGAAGAGCACACGU
B7: target 2 MT 5'PFS AGG 3'PFS CAG (mixed)
RNA 1: CACCCGUGCAAAAUUGCAGGGGUCUAAAACCUUCUCCAAAUUGUUUCAUCCU
RNA 2: GGGAAUGGAUCCACAUCUACGAAUUCAGGAGGAUGAAACAAUUUGGAGAAGCAGAGAUCGGAAGAGCACACGU
B8: target 2 MT 5'PFS CUC 3'PFS AAA (mixed)
RNA 1: CACCCGUGCAAAAUUGCAGGGGUCUAAAACCUUCUCCAAAUUGUUUCAUCCU
RNA 2: GGGAAUGGAUCCACAUCUACGAAUUCCUCAGGAUGAAACAAUUUGGAGAAGAAAAGAUCGGAAGAGCACACGU
B9: target 2 MT 5'PFS GUU 3'PFS UCA (mixed)
RNA 1: CACCCGUGCAAAAUUGCAGGGGUCUAAAACCUUCUCCAAAUUGUUUCAUCCU
RNA 2: GGGAAUGGAUCCACAUCUACGAAUUCGUUAGGAUGAAACAAUUUGGAGAAGUCAAGAUCGGAAGAGCACACGU
B10: target 2 MT 5'PFS UCA 3'PFS AGC (mixed)
RNA 1: CACCCGUGCAAAAUUGCAGGGGUCUAAAACCUUCUCCAAAUUGUUUCAUCCU
RNA 2: GGGAAUGGAUCCACAUCUACGAAUUCUCAAGGAUGAAACAAUUUGGAGAAGAGCAGAUCGGAAGAGCACACGU
B11: target 2 MT 5'PFS CUC 3'PFS AAG (mixed)
RNA 1: CACCCGUGCAAAAUUGCAGGGGUCUAAAACCUUCUCCAAAUUGUUUCAUCCU
RNA 2: GGGAAUGGAUCCACAUCUACGAAUUCCUCAGGAUGAAACAAUUUGGAGAAGAAGAGAUCGGAAGAGCACACGU
B12: target 2 MT 5'PFS GCG 3'PFS AUG (mixed)
RNA 1: CACCCGUGCAAAAUUGCAGGGGUCUAAAACCUUCUCCAAAUUGUUUCAUCCU
RNA 2: GGGAAUGGAUCCACAUCUACGAAUUCGCGAGGAUGAAACAAUUUGGAGAAGAUGAGAUCGGAAGAGCACACGU
B13: target 2 MT 5'PFS UGG 3'PFS CAA (mixed)
RNA 1: CACCCGUGCAAAAUUGCAGGGGUCUAAAACCUUCUCCAAAUUGUUUCAUCCU
RNA 2: GGGAAUGGAUCCACAUCUACGAAUUCUGGAGGAUGAAACAAUUUGGAGAAGCAAAGAUCGGAAGAGCACACGU
B14: target 2 MT 5'PFS GCG 3'PFS AUC (mixed)
RNA 1: CACCCGUGCAAAAUUGCAGGGGUCUAAAACCUUCUCCAAAUUGUUUCAUCCU
RNA 2: GGGAAUGGAUCCACAUCUACGAAUUCGCGAGGAUGAAACAAUUUGGAGAAGAUCAGAUCGGAAGAGCACACGU
B15: target 2 MT 5'PFS AAU 3'PFS UAC (mixed)
RNA 1: CACCCGUGCAAAAUUGCAGGGGUCUAAAACCUUCUCCAAAUUGUUUCAUCCU
RNA 2: GGGAAUGGAUCCACAUCUACGAAUUCAAUAGGAUGAAACAAUUUGGAGAAGUACAGAUCGGAAGAGCACACGU
B16: target 2 MT 5'PFS GGU 3'PFS ACA (mixed)
RNA 1: CACCCGUGCAAAAUUGCAGGGGUCUAAAACCUUCUCCAAAUUGUUUCAUCCU
RNA 2: GGGAAUGGAUCCACAUCUACGAAUUCGGUAGGAUGAAACAAUUUGGAGAAGACAAGAUCGGAAGAGCACACGU
B17: target 2 MT 5'PFS GUU 3'PFS UCC (mixed)
RNA 1: CACCCGUGCAAAAUUGCAGGGGUCUAAAACCUUCUCCAAAUUGUUUCAUCCU
RNA 2: GGGAAUGGAUCCACAUCUACGAAUUCGUUAGGAUGAAACAAUUUGGAGAAGUCCAGAUCGGAAGAGCACACGU
B18: target 2 MT 5'PFS AUA 3'PFS AUC (mixed)
RNA 1: CACCCGUGCAAAAUUGCAGGGGUCUAAAACCUUCUCCAAAUUGUUUCAUCCU
RNA 2: GGGAAUGGAUCCACAUCUACGAAUUCAUAAGGAUGAAACAAUUUGGAGAAGAUCAGAUCGGAAGAGCACACGU
B19: target 2 MT 5'PFS GGU 3'PFS ACG (mixed)
RNA 1: CACCCGUGCAAAAUUGCAGGGGUCUAAAACCUUCUCCAAAUUGUUUCAUCCU
RNA 2: GGGAAUGGAUCCACAUCUACGAAUUCGGUAGGAUGAAACAAUUUGGAGAAGACGAGAUCGGAAGAGCACACGU
B20: target 2 MT 5'PFS CAC 3'PFS UAU (mixed)
RNA 1: CACCCGUGCAAAAUUGCAGGGGUCUAAAACCUUCUCCAAAUUGUUUCAUCCU
RNA 2: GGGAAUGGAUCCACAUCUACGAAUUCCACAGGAUGAAACAAUUUGGAGAAGUAUAGAUCGGAAGAGCACACGU
B21: target 2 MT 5'PFS AUA 3'PFS AUG (mixed)
RNA 1: CACCCGUGCAAAAUUGCAGGGGUCUAAAACCUUCUCCAAAUUGUUUCAUCCU
RNA 2: GGGAAUGGAUCCACAUCUACGAAUUCAUAAGGAUGAAACAAUUUGGAGAAGAUGAGAUCGGAAGAGCACACGU
B22: target 2 MT 5'PFS UCA 3'PFS AGA (mixed)
RNA 1: CACCCGUGCAAAAUUGCAGGGGUCUAAAACCUUCUCCAAAUUGUUUCAUCCU
RNA 2: GGGAAUGGAUCCACAUCUACGAAUUCUCAAGGAUGAAACAAUUUGGAGAAGAGAAGAUCGGAAGAGCACACGU
B23: target 2 MT 5'PFS GUU 3'PFS UCU (mixed)
RNA 1: CACCCGUGCAAAAUUGCAGGGGUCUAAAACCUUCUCCAAAUUGUUUCAUCCU
RNA 2: GGGAAUGGAUCCACAUCUACGAAUUCGUUAGGAUGAAACAAUUUGGAGAAGUCUAGAUCGGAAGAGCACACGU
B24: target 2 MT 5'PFS UAU 3'PFS GAA (mixed)
RNA 1: CACCCGUGCAAAAUUGCAGGGGUCUAAAACCUUCUCCAAAUUGUUUCAUCCU
RNA 2: GGGAAUGGAUCCACAUCUACGAAUUCUAUAGGAUGAAACAAUUUGGAGAAGGAAAGAUCGGAAGAGCACACGU
B25: target 2 MT 5'PFS CUC 3'PFS AAC (mixed)
RNA 1: CACCCGUGCAAAAUUGCAGGGGUCUAAAACCUUCUCCAAAUUGUUUCAUCCU
RNA 2: GGGAAUGGAUCCACAUCUACGAAUUCCUCAGGAUGAAACAAUUUGGAGAAGAACAGAUCGGAAGAGCACACGU
B26: target 2 MT 5'PFS UCA 3'PFS AGG (mixed)
RNA 1: CACCCGUGCAAAAUUGCAGGGGUCUAAAACCUUCUCCAAAUUGUUUCAUCCU
RNA 2: GGGAAUGGAUCCACAUCUACGAAUUCUCAAGGAUGAAACAAUUUGGAGAAGAGGAGAUCGGAAGAGCACACGU
B27: target 2 MT 5'PFS GAC 3'PFS AAU (mixed)
RNA 1: CACCCGUGCAAAAUUGCAGGGGUCUAAAACCUUCUCCAAAUUGUUUCAUCCU
RNA 2: GGGAAUGGAUCCACAUCUACGAAUUCGACAGGAUGAAACAAUUUGGAGAAGAAUAGAUCGGAAGAGCACACGU

The target of this data set is T1, EsCas13d, nuclease-dead. Put plainly: crRNA (strand 1, pre-loaded); Mg2+; 40 mM Tris-HCl pH 7.5, 150 mM NaCl, 6 mM MgCl2, 1 mM DTT, 0.1% Tween-20, 0.2 mg/ml BSA; 25 C; 10 min per concentration, then washed. The note with it: tags: His6-TwinStrep-SUMO cleaved; N-terminal SNAP kept (SNAP-Surface 488); label: 3' end held by stalled T7 RNA polymerase.
B1: the affinity, expressed as Kd, was 7.3 ± 0.7 nM. The value for B2 was roughly 40 nM; that for B3 was 5.2 ± 0.6 nM; that for B4 was roughly 4.3 nM. The value for B5 was 6.2 ± 0.8 nM; that for B6 was 17.8 ± 1.7 nM. To B7 belongs 4.8 ± 0.5 nM; to B8, 2.3 ± 0.6 nM; to B9, 29 ± 8 nM. As for B10, the Kd (as a rule, a measure of binding affinity in units of concentration) is 2.68 ± 0.29 nM. The value for B11 was 2.32 ± 0.34 nM; that for B12 was 15.5 ± 2.1 nM; that for B13 was 4.7 ± 0.8 nM. The value for B14 was 10.1 ± 0.9 nM; that for B15 was 9.2 ± 2.1 nM. The value for B16 was 13.4 ± 1.7 nM; that for B17 was 36 ± 5 nM; that for B18 was 6.1 ± 0.7 nM. B19: binding was put at a Kd of 18.2 ± 1.8 nM.

B20 returned a Kd of 1.87 ± 0.31 nM. To B21 belongs 5.6 ± 0.5 nM. Regarding B22, binding was characterised by a dissociation constant (Kd) of 7.6 ± 1.8 nM. The value for B23 was 23.9 ± 3.1 nM.

With B24, the Kd stood at 14.3 ± 3.1 nM. Consider B25, for which binding was put at a Kd of 2.5 ± 0.5 nM. To B26 belongs 3.3 ± 0.7 nM; to B27, 10.7 ± 2.4 nM.

For the origin of these results see article PMC10786891, “Massively parallel profiling of RNA-targeting CRISPR-Cas13d”.
